# Reference: the Immune Epitope Database (IEDB)
# pKd: −log10 of the molar value.
# How the values were obtained:
# HLA-A*02:03 = assay: IEDB peptide-MHC binding, purified MHC/competitive/fluorescence; filed as Kd, often an IC50 or EC50 that approximates it; ≥ and ≤ were set here for values at or beyond the usual limits of such assays
# HLA-B*15:01 = assay: as above
# HLA-B*27:03 = assay: as above
# HLA-A*02:12 = assay: as above
# HLA-A*02:19 = assay: as above
# HLA-A*26:01 = assay: as above
# HLA-B*46:01 = assay: as above
# HLA-B*18:01 = assay: as above
# HLA-A*02:01 = assay: as above
# HLA-A*02:16 = assay: as above
# HLA-A*23:01 = assay: as above
# HLA-A*03:01 [1] = assay: as above
# HLA-B*51:01 = assay: as above
# HLA-B*39:01 = assay: as above
# HLA-A*68:02 = assay: as above
# HLA-A*24:03 = assay: as above
# HLA-B*57:01 = assay: as above
# HLA-A*31:01 = assay: as above
# HLA-A*01:01 = assay: as above; conditions: source organism: Shigella boydii CDC 3083-94
# HLA-B*58:01 = assay: as above
# HLA-A*02:11 = assay: as above
# HLA-A*29:02 = assay: as above
# HLA-A*69:01 = assay: as above
# HLA-B*83:01 = assay: as above; conditions: source organism: Rickettsia typhi str. Wilmington
# HLA-B*45:06 = assay: as above; conditions: source organism: Rickettsia typhi str. Wilmington
# HLA-B*15:42 = assay: as above; conditions: source organism: Rickettsia typhi str. Wilmington
# HLA-A*11:01 = assay: IEDB peptide-MHC binding, purified MHC/direct/fluorescence; filed as Kd, often an IC50 or EC50 that approximates it; ≥ and ≤ were set here for values at or beyond the usual limits of such assays
# HLA-A*03:01 [2] = assay: as above
# HLA-B*15:17 = assay: IEDB peptide-MHC binding, purified MHC/competitive/fluorescence; filed as Kd, often an IC50 or EC50 that approximates it; ≥ and ≤ were set here for values at or beyond the usual limits of such assays
# [3] = source organism: Burkholderia pseudomallei K96243
# [4] = source organism: Escherichia coli 101-1
# [5] = source organism: Shigella boydii CDC 3083-94
# [6] = source organism: Campylobacter jejuni subsp. jejuni NCTC 11168 = ATCC 700819
# [7] = source organism: Rickettsia typhi str. Wilmington
# [8] = source organism: Rickettsia typhi
# [9] = source organism: Burkholderia mallei
# [10] = source organism: Bacillus anthracis str. 'Ames Ancestor'
# [11] = source organism: dengue virus type 4
sequence,measurement,setting,value
DELWRGLLA,pKd,HLA-A*02:03; [3],≤ 4.70
same,pKd,HLA-B*15:01; [3],≤ 4.70
same,pKd,HLA-B*27:03; [3],≤ 4.70
same,pKd,HLA-A*02:12; [3],≤ 4.70
same,pKd,HLA-A*02:19; [3],≤ 4.70
same,pKd,HLA-A*26:01; [3],≤ 4.70
same,pKd,HLA-B*46:01; [3],≤ 4.70
same,pKd,HLA-B*18:01; [3],7.09
same,pKd,HLA-A*02:01; [3],≤ 4.70
same,pKd,HLA-A*02:16; [3],≤ 4.70
same,pKd,HLA-A*23:01; [3],≤ 4.70
same,pKd,HLA-A*03:01 [1]; [3],≤ 4.70
same,pKd,HLA-B*51:01; [3],≤ 4.70
same,pKd,HLA-B*39:01; [3],≤ 4.70
same,pKd,HLA-A*68:02; [3],≤ 4.70
same,pKd,HLA-A*24:03; [3],≤ 4.70
same,pKd,HLA-B*57:01; [3],≤ 4.70
GTKAWVMNR,pKd,HLA-A*31:01; [4],8.48
same,pKd,HLA-A*03:01 [1]; [4],5.35
HSETVIHRY,pKd,HLA-B*15:01; [5],5.52
same,pKd,HLA-A*01:01,7.84
same,pKd,HLA-B*58:01; [5],≤ 4.70
KGMKIQHFK,pKd,HLA-A*02:03; [6],≤ 4.70
same,pKd,HLA-B*15:01; [6],≤ 4.70
same,pKd,HLA-B*27:03; [6],≤ 4.70
same,pKd,HLA-A*02:12; [6],≤ 4.70
same,pKd,HLA-A*02:19; [6],≤ 4.70
same,pKd,HLA-A*26:01; [6],≤ 4.70
same,pKd,HLA-B*46:01; [6],≤ 4.70
same,pKd,HLA-B*18:01; [6],≤ 4.70
same,pKd,HLA-A*02:01; [6],≤ 4.70
same,pKd,HLA-A*02:11; [6],≤ 4.70
same,pKd,HLA-A*02:16; [6],≤ 4.70
same,pKd,HLA-A*23:01; [6],≤ 4.70
same,pKd,HLA-A*03:01 [1]; [6],7.17
same,pKd,HLA-A*29:02; [6],≤ 4.70
same,pKd,HLA-B*51:01; [6],≤ 4.70
same,pKd,HLA-B*39:01; [6],≤ 4.70
same,pKd,HLA-A*68:02; [6],≤ 4.70
same,pKd,HLA-A*24:03; [6],≤ 4.70
same,pKd,HLA-B*57:01; [6],≤ 4.70
same,pKd,HLA-A*69:01; [6],≤ 4.70
LKASGRYQW,pKd,HLA-B*58:01; source organism: Escherichia coli O139:H28 str. E24377A,6.06
LTIPTIMGR,pKd,HLA-A*31:01; [7],8.59
same,pKd,HLA-B*83:01,≤ 5.30
same,pKd,HLA-B*45:06,≤ 5.30
same,pKd,HLA-B*15:42,≤ 5.30
same,pKd,HLA-A*11:01; [8],8.52
same,pKd,HLA-A*03:01 [2]; [8],6.03
LTQRRTTPR,pKd,HLA-A*31:01; source organism: Burkholderia mallei FMH,7.88
same,pKd,HLA-A*11:01; [9],7.28
same,pKd,HLA-A*03:01 [2]; [9],5.73
MTQNISNDK,pKd,HLA-A*02:03; [10],≤ 4.70
same,pKd,HLA-B*15:01; [10],≤ 4.70
same,pKd,HLA-B*27:03; [10],≤ 4.70
same,pKd,HLA-A*02:12; [10],≤ 4.70
same,pKd,HLA-A*02:19; [10],≤ 4.70
same,pKd,HLA-A*26:01; [10],≤ 4.70
same,pKd,HLA-B*46:01; [10],≤ 4.70
same,pKd,HLA-B*18:01; [10],≤ 4.70
same,pKd,HLA-B*15:17; [10],≤ 4.70
same,pKd,HLA-A*02:01; [10],≤ 4.70
same,pKd,HLA-A*02:11; [10],≤ 4.70
same,pKd,HLA-A*02:16; [10],≤ 4.70
same,pKd,HLA-A*03:01 [1]; [10],5.22
same,pKd,HLA-A*29:02; [10],≤ 4.70
same,pKd,HLA-B*51:01; [10],≤ 4.70
same,pKd,HLA-B*39:01; [10],≤ 4.70
same,pKd,HLA-A*68:02; [10],≤ 4.70
same,pKd,HLA-A*24:03; [10],≤ 4.70
same,pKd,HLA-B*57:01; [10],≤ 4.70
same,pKd,HLA-A*69:01; [10],≤ 4.70
QLEVRSTEV,pKd,HLA-B*15:01; [7],≤ 4.70
same,pKd,HLA-B*27:03; [7],≤ 4.70
same,pKd,HLA-A*02:12; [7],6.37
same,pKd,HLA-A*26:01; [7],≤ 4.70
same,pKd,HLA-B*46:01; [7],≤ 4.70
same,pKd,HLA-B*18:01; [7],≤ 4.70
same,pKd,HLA-B*15:17; [7],≤ 4.70
same,pKd,HLA-A*02:01; [7],≤ 4.70
same,pKd,HLA-A*02:11; [7],≤ 4.70
same,pKd,HLA-A*02:16; [7],≤ 4.70
same,pKd,HLA-A*23:01; [7],≤ 4.70
same,pKd,HLA-A*03:01 [1]; [7],≤ 4.70
same,pKd,HLA-A*29:02; [7],≤ 4.70
same,pKd,HLA-B*51:01; [7],≤ 4.70
same,pKd,HLA-B*39:01; [7],≤ 4.70
same,pKd,HLA-A*24:03; [7],≤ 4.70
same,pKd,HLA-B*57:01; [7],≤ 4.70
RNNDPTLPY,pKd,HLA-A*02:03; [5],≤ 4.70
same,pKd,HLA-B*27:03; [5],≤ 4.70
same,pKd,HLA-A*02:12; [5],≤ 4.70
same,pKd,HLA-A*02:19; [5],≤ 4.70
same,pKd,HLA-A*26:01; [5],≤ 4.70
same,pKd,HLA-B*46:01; [5],≤ 4.70
same,pKd,HLA-B*18:01; [5],≤ 4.70
same,pKd,HLA-B*15:17; [5],≤ 4.70
same,pKd,HLA-A*02:01; [5],≤ 4.70
same,pKd,HLA-A*02:16; [5],≤ 4.70
same,pKd,HLA-A*23:01; [5],≤ 4.70
same,pKd,HLA-B*51:01; [5],≤ 4.70
same,pKd,HLA-B*39:01; [5],≤ 4.70
same,pKd,HLA-A*68:02; [5],≤ 4.70
same,pKd,HLA-A*24:03; [5],≤ 4.70
same,pKd,HLA-B*57:01; [5],≤ 4.70
same,pKd,HLA-A*69:01; [5],≤ 4.70
RSSKLVMRY,pKd,HLA-B*58:01; source organism: Yersinia pestis Nepal516,7.74
VVTLIPLCR,pKd,HLA-A*31:01; [11],7.52
same,pKd,HLA-A*11:01; [11],6.34
